Legend:
[1] = test system: split-Cas9 (alpha-helical lobe + nuclease lobe) (Streptococcus pyogenes); assay: cell_activity; conditions: HEK293T nucleofected RNP, nocodazole synchronized; 0.6% unsynchronized; WT 34% and 22%
[2] = biological target: Cas9 nuclease lobe (Streptococcus pyogenes) (UniProt Q99ZW2); assay: filter
[3] = biological target: Cas9 alpha-helical lobe (Streptococcus pyogenes) (UniProt Q99ZW2); assay: filter; conditions: 5 mM MgCl2, RT
[4] = biological target: dCas9 D10A,H840A (Streptococcus pyogenes) (UniProt Q99ZW2); assay: EMSA; conditions: 5 mM MgCl2, heparin, RT; PAM NGG
[5] = test system: split-dCas9 (alpha-helical lobe + dNuclease lobe) D10A,H840A (Streptococcus pyogenes); assay: EMSA; conditions: apparent; complex dissociation contributes; 5 mM MgCl2, heparin; PAM NGG

In the case of EMX1 sgRNA ; EMX1 locus target, the activity [1] is reported as < 2 % indels.

In the case of delta-hairpins1-2 sgRNA, the Kd ([2]; 5 mM MgCl2, RT) is reported as > 100 nM.

With delta-spacer-nexus sgRNA the Kd [3] was > 100 nM.

Work on full-length sgRNA yielded a Kd ([2]; Example 1, p568 gives range 0.2-0.8 nM) of 0.5 nM.

With “full-length sgRNA ; target dsDNA (55 bp, with PAM)” the Kd [4] was 0.2 nM and the Kd [5] was 700 nM.

Reference: patent US11208638
